In patent US20130273553A9, “STABILIZATION OF CYCLIC PEPTIDE STRUCTURES” (priority 2007, published 2013):

Assays:
[1] = system: SOS-regulated sulA promoter (sulA-GFP); assay: MMC-induced expression of sulA-GFP (SOS response genes), flow cytometry; format: cell-based, E. coli; settings: SMR6039-DE3 with pETIL-L2, IPTG-induced versus uninduced, 0.1 μg/mL MMC
Excerpt: (§1) FIG. 21. Biological Activity of L2 Lariat and Cyclic Peptide.
We used the SMR6039 E. coli strain, which expresses GFP under the control of a SOS-regulated sulA promoter (Hastings, P. J. et al. (2004) PLoS Biol. 2:e399) to monitor induction of the SOS response pathway. We used the λDE3 Lysogenization Kit (Novagen) to modify SMR6039 to express T7 RNA polymerase, which allows expression of the L.2 lariat from the T7 promoter in pETIL-L2 plasmid. […] We measured the GFP fluorescence of the samples using flow cytometery (Epics X L, Coultier, Mississauga, ON). We scored cells as positive for SOS induction in they expressed more than one fluorescence unit of GFP.

[2] = Amount of lactone-cyclized L2 lariat, ESI-TOF MS and Na18OH cleavage; format: physicochemical
Excerpt: FIG. 17. Analysis of L2 Lariat. […] (i) Yeast growth on nonselective His^−,Trp^− glucose media. […] (i) Lariat cyclized through a lactone bond. (ii) Lariat cleaved prior to Na^18OH treatment.
FIG. 20. Quantification of Lariat Prior to MS analysis. (a) Analysis of ^18O incorporation at the tyrosine carboxylic acid at position (IN−1). Trypsin digest of the Na^18OH treated lariat produces a peptide fragment containing tyrosine at position (IN−1) ([…]). The ^16O product has a calculated mass of 966.420 m/z and the ^18O product has a calculated mass of 968.420 m/z. (b) Mass spectrometry analysis of […] peptide fragment from the Na^16OH or Na^18OH treated samples over layed with the theoretical isotope distribution (MS-ISOTOPE software). In the Na^18OH treated sample there is a large deviation from the theoretical distribution indicating the presence of more than one peptide. […] The 1+ and 2+ charged fragments were analyzed and similar results were observed. Only the 1+ charge is shown. (d) Overlay of the sum of the calculated contributions of the ^18O and […] on the observed […] peptide fragment spectrum. (e) Analysis of ^18O incorporation at the serine side chain at position (IC+1). Trypsin digest of the Na^18OH treated lariat produces a peptide fragment containing serine at position (IC+1) ([…]). The mass of this fragment is 2590.352 m/z corresponding to a product 1 Da heavier than the predicted ^18O incorporated product. A 1 Da shift can be attributed to deamidation of asparagine. […] The 2+, 3+4+and 5+charged fragments were analyzed and similar results were obtained. […] (h) Overlay of the sum of the calculated contributions of the ^18O and ^16O peptides on the observed […] peptide fragment spectrum.
We used LC-ESI-TOF MS to confirm the molecular weight of the His-tag lariat purified from E. coli. To confirm the presence of the lariat lactone prior to MS analysis, we treated His-tag lariat with 0.5 M Na^18OH, purified the products using reverse-phase HPLC, digested them with trypsin, and analyzed the molecular weight of the trypsin fragments using LC-ESI-TOF MS. […]

BL21-CP cells = assay: Bacterial viability (survival) assay with and without MMC; format: cell-based, E. coli; settings: one hour
Description: as §1
FIG. 22. […] Survival assay for BL21-CP cells treated synthetic linear L2 peptide. Cell survival is reported relative to the untreated control.
We performed cell viability assays as described by Lin and Little (Lin, L. L. & Little, J. W. (1988) Bacteriol. 170:2163-2173). For assays where L2 lariat is expressed from pET28b plasmid, we cultured BL21(DE3)-CP containing pETIL-L2 or pETIL-01 to an OD600 of 0.4 in LB-KAN at 37° C. We split the samples in two and induced one sample with 1 mM IPTG for 1 hour and left the other the other sample uninduced. […] We removed 10 μL and diluted it […] in ice cold LB (1 mL) for a zero time point control. We incubated the remaining sample at 37° C. for 1 hour and then removed 10 μL and diluted 1000-fold into 1 mL ice-cold LB. We plated a 60 μl aliquot from the 0 and 1 hour samples on LB plates and incubated the plates at 37° C. overnight.

LexA = LexA (Escherichia coli, UniProt P0A7C2); settings: BL21-CP cells expressing the lariat, 0.1 μg/mL MMC, 0-3 hours
Excerpt: FIG. 21. Biological Activity of L2 Lariat and Cyclic Peptide. […] Error bars represent the standard deviation of three independent experiments.

[3] = His-tag lariat from pETIL-L2 in BL21-CP

Chain of LexA (P0A7C2 whole entry): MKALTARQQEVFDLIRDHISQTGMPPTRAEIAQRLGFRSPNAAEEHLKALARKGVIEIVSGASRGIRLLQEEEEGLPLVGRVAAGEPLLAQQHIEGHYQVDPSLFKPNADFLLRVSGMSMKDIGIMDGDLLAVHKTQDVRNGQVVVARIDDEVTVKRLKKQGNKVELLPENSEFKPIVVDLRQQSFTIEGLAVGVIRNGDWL

Substance: L2 lariat: anti-LexA lariat, lactone-cyclized noose sequence (RSWDLPGEY), expressed from Ssp DnaE lariat intein with Asn to Ala at IC−1 (G7)
- percentage of GFP expressing cells (sulA-GFP) after MMC [1]: decreases
- fraction of product corresponding to hydrolyzed lariat (8669 Da) by MS [2, 3]: 85%
- fraction of product corresponding to the L2 lariat (8651 Da) by MS [2, 3]: 15%
- lariat cyclized prior to MS analysis ([2]; from fraction of 18O incorporated after Na18OH cleavage and trypsin digest): 46%
- viability with lariat expression plus MMC (BL21-CP cells; of the control, IPTG induction plus MMC 0.1 μg/mL): < 1%
- viability on expression of the lariat alone (BL21-CP cells; of the uninduced controls, IPTG induction, no MMC, 0.85% NaCl): ~35%
- MMC-induced LexA cleavage (LexA): not observed after three hours
